Positions of bridges follow the written chain, without caps; N, C: chain ends. No end group written: not given here.
B1: rhTPO: recombinant human TPO (rhTPO, Peprotech) (protein)
chain: SPAPPACDLRVLSKLLRDSHVLHSRLSQCPEVHPLPTPVLLPAVDFSLGEWKTQMEETKAQDILGAVTLLLEGVMAARGQLGPTCLSSLLGQLSGQVRLLLGALQSLLGTQLPPQGRTTAHKDPNAIFLSFQHLLRGKVRFLMLVGGSTLCVRRAPPTTAVPSRTSLVLTLNEL

What was measured:
FGFR = target: T1, FGFR (Homo sapiens, UniProt P11362); experiment: FGFR inhibitory activity, SRE luciferase assay in HEK293E cells stimulated with bFGF; type: cell-based; conditions: peptide at 10 μM, 0 to 10 ng/mL bFGF, FIG. 3
T1 construct: endogenous in cells; host or cells: HEK293E
T1 sequence (P11362 22-822): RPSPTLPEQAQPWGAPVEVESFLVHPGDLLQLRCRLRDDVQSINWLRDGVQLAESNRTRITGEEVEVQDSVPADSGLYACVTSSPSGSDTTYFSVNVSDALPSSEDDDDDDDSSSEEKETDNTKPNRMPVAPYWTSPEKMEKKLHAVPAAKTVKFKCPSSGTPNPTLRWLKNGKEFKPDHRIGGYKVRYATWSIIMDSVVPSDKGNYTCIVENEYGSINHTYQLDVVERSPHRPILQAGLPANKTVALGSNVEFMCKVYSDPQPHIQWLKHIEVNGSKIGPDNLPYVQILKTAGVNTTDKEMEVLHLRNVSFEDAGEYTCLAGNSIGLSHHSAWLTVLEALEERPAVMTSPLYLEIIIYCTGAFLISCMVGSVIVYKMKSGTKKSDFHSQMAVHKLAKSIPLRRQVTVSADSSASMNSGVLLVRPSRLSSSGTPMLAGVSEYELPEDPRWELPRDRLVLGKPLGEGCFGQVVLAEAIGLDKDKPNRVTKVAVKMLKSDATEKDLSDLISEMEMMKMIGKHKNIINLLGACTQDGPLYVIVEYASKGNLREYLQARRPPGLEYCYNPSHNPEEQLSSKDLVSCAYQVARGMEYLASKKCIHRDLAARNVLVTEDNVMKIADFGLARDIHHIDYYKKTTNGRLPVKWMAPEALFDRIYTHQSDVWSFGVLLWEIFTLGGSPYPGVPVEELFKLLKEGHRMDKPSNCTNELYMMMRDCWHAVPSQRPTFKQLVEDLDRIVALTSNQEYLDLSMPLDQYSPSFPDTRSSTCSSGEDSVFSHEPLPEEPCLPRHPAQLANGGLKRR
Experimental: The inhibitory activity of the FBP monomer peptide chemically synthesized with the FBP-PAS dimer peptide on FGFR was evaluated by luciferase assay. To 25 μL of Opti-MEM medium (Thermo Fisher Scientific), 0.6 μL of Attractene Transfection Reagent (QIAGEN) was added, and the mixture was incubated at room temperature for 5 minutes. To the above mixed solution, a mixed solution of 25 μL of Opti-MEM and 1 μL of SRE reporter vector (QIAGEN) was added, and the mixture was incubated at room temperature for 20 minutes. This mixed solution was added to a 96-well plate, over which 40,000 cell/well HEK293E cells were seeded and incubated overnight in a 5% CO2 incubator at 37° C. […]
The signal intensities were detected using Dual-Luciferase Reporter Assay System (Promega). […] The luminescence of Firefly luciferase emitted from the cell lysate solution was detected with a plate reader to quantify the activation of the FGFR-Erk-SRE pathway. Subsequently, 50 μL of Glo & Stop reagent solution was added, and after 10 minutes, the luminescence of the internal standard Renilla luciferase was detected to quantify the number of cells. The signal activity of each sample was quantified as SRE activity=(Firefly luciferase luminescence intensity)/(Renilla luciferase luminescence intensity). […]

HEL cells [1] = experiment: Signal characteristics, Proteome Profiler Human Phospho-Kinase Array Kit, HEL cells; type: cell-based; conditions: 100 ng/mL rhTPO or culture supernatant 1/100 to 1/1000, 20 minutes, FIG. 43
Experimental: The signal characteristics of the TPO-PAS dimer peptide were evaluated using Proteome Profiler Human Phospho-Kinase Array Kit (R&D Systems).
(§1) 1,000,000 HEL cells were cultured in RPMI 1640 medium without FBS (Thermo Fisher Scientific) for 24 hours and starved. The cells were stimulated for 20 minutes in RPMI 1640 medium supplemented with 100 ng/mL recombinant human TPO (rhTPO, Peprotech) or a culture supernatant containing TPO2-PAS8 at a dilution of 1/100 to 1/1000. As a negative control, PBS was added, and stimulation was performed for 20 minutes (Mock group). After removing the medium and washing the cells once with PBS, the cells were lysed by adding 200 μL of Lysis buffer 17 (R&D Systems) supplemented with Protease inhibitor cocktail (Nacalai Tesque). The lysate solution was centrifuged at 14,000 G for 5 minutes to obtain the supernatant as lysate.
The lysate was analyzed using Proteome Profiler Human Phospho-Kinase Array Kit. Amersham Imager 600 (GE Healthcare) was used to detect chemiluminescence. The chemiluminescence intensity of the dots was quantified using ImageJ. […] The signal pathway stimulated by rhTPO is mainly the JAK2/Stat3,5 pathway, and all of the proteins with increased phosphorylation levels are included in the pathway.

HEL cells [2] = experiment: Thrombopoietin-like activity, CREB phosphorylation levels in HEL cells (Phospho-CREB (Ser133) ELISA); type: cell-based, human; conditions: dimer peptide 20-40 ng/mL or rhTPO 100 ng/mL, 20 minutes, Mock = PBS, FIG. 90
Experimental: as §1, with “The thrombopoietin-like activity of the TPO-PAS dimer peptide variant was evaluated by quantification of CREB phosphorylation levels in HEL cells, a human leukemia-derived blood cell line. 200,000” for “1,000,000”, “each dimer peptide of TPO2-PAS8, TPO2-PAS49, TPO2-PAS100, or TPO2-GS8 diluted to” for “TPO2-PAS8 at”, “final concentration” for “dilution”, “20-40 ng/mL.” for “1/100 to 1/1000.”, “100” for “200”, “lysate. Note that TPO2-PAS8 was obtained according to the method described in Example 23.” for “lysate.”
Phospho-CREB (Ser133) and Total CREB ELISA kit (RayBio) were used to quantify phosphorylated CREB (pCREB) levels in the lysates. […] Phosphorylation levels were quantified by adding 50 μL of Stop solution and measuring the absorbance at a wavelength of 450 nm on a microplate.

Molecule | inhibitory activity on FGFR (relative receptor activity) (FGFR) | phosphorylation levels of signal proteins compared with PBS (Mock group) (HEL cells [1]) | pCREB level (relative CREB phosphorylation level) (HEL cells [2]) [%]
RPGCGPRKPRTPKKCGSHGAAPAAPAPAAPAAPAPAAPAGRPGCGPRKPRTPKKCGSH (disulfide 4-15, 44-55) [FBP-PAS] | higher inhibitory activity than the FBP monomer peptide | – | –
B1 | – | increased in phosphorylation levels of Erk, CREB, Stat3, Stat5a, and Stat5b | 143

Reference: patent US20220396819A1, “METHOD FOR PRODUCING PEPTIDE HAVING PHYSIOLOGICAL ACTIVITY, AND PEPTIDE COMPRISING SHORT LINKER” (priority 2019, published 2022)
